# Data from patent publication US20170058021A1 (SHANGHAI PULMONARY HOSPITAL, published 2017).
# B1: human lung tissue nanobody Nb43 (VHH)
# VHH: MQAQLAVQLQLVESGGGLVQSGGSLRLSCAASGFTFNDYRMSWVRQAPGKGLEWVSDINSGGSSTYYADSVKGRFTVSRDNAKNTLYLQMNSLKPEDTAIYYCVALLGRGCSGLVQGAFGPWGQGTQVTVSSAHHSEDPGPRGLAAAGAPVPYPDPLEPRAA
# B2: human lung tissue nanobody Nb11 (VHH)
# VHH: MQAQLAGQLQLVESGGGLVQPGGSLRLSCTASKFHLDSYAVAWFRQTPGKEREAVSFINTSDDVTYFADSVKGRFTISRDNSKNTVYLQMNVLKPEDTSIYVCAAVRSPGPTGPSMQPMWVPDLYDYWGQGTQVTVSSAHHSEDPGPRGLAAAGAPVPYPDPLEPRAA
# B3: human lung tissue nanobody Nb15 (VHH)
# VHH: MQAQLAGQLQLVESGGGLVQPGGSLSVSCAVRGRDLDYYVIGWFRQAPGKEREGVSCINNSDDTTYYSDSVKGRFTISRDHAKNTVYLQMNNLKPEDTALYYCAADFDRLDFTVKAMCVMKFFYYWGQGTQVTVSSEPKTPKPQGPRGLAAAGAPVPYPDLEPRAA
# B4: human lung tissue nanobody Nb17 (VHH)
# VHH: MQAQLAVQLQLVESGGGLVQPGGSLRLACAASGFNLDDYADIGWFRQAPGKERERVLCITISDGTTYYEDSGKGRFSISTDIAKNTVFLQMDSLKAEDTAVYYCAGDPAPFCLYNTYVPRTWGQGTQVTVSSAHHSEDPGPRGLAAAGAPVPYPDPLEPRAA
# notes: also called No. 17
# Target: T1, human pulmonary surfactant protein A (hSP-A) (human, UniProt Q8IWL2 21-248)
# T1 construct: Native material from ground human lung tissue (supernatant of the lysate, called 'purified hSP-A'); It may hold both SP-A1 and SP-A2 gene products; also called human lung SP-A
# T1 sequence (Q8IWL2 21-248 limits assumed): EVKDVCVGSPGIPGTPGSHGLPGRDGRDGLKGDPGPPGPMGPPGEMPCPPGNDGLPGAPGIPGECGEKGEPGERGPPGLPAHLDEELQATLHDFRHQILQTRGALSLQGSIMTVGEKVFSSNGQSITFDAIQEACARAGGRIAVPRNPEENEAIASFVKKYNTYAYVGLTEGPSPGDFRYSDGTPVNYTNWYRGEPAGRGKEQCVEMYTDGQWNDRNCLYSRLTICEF
# Test: ELISA with purified nanobody
row,Binder,OD450 relative to negative control
1,B1,2 times the negative control
2,B2,2 times the negative control
3,B3,2 times the negative control
4,B4,2 times the negative control

# Target: T1, human pulmonary surfactant protein A …
# Test: indirect phage ELISA, plate coated with hSP-A, OD 450 nm
row,Binder,affinity value relative to negative control
1,B1,3 times the negative control
2,B2,3 times the negative control
3,B3,3 times the negative control
4,B4,3 times the negative control
